The results in this text go back to the supplement of paper PMC12764529.

± gives the half width of the 95% confidence interval.

A short description of data set [1]: folding stability dG unfold from trypsin proteolysis; higher = more stable. Put shortly:
(§1)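 Only designs with AlphaFold2 dimer inter-PAE above 15 were retained; each was a mini-protein under 80 residues with no cysteine, in a PA-tagged cDNA display construct. After digestion with trypsin and chymotrypsin and sequencing, K50 was inferred by Bayesian fitting of counts, and unfolding free energy was derived per protease or combined against a sequence-predicted unfolded-state K50 and a shared folded-state K50.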

A short description of data set [2]: folding stability dG unfold from chymotrypsin proteolysis; higher = more stable. Put shortly:
as §1

A short description of data set [3]: folding stability dG unfold (combined trypsin and chymotrypsin); higher = more stable. Put shortly: as §1

For “SAGMPGKVVTVTVPVPPELTRLTVTATAPDGSSSTFTLPPGVATTVTFTSPSSSDLSVTVTFPDGSTTGSAG [r5_664_JUSTAS]”, the “folding stability dG unfold” value was determined as 0.849 ± 0.017 kcal/mol in data set [1], 1.16 ± 0.052 kcal/mol in data set [2] and 1.07 ± 0.05 kcal/mol in data set [3].
On the same counts, the results for “SAGMPIKAKVLIFDPVNPVPKEFEFDVEDLDELVEKIREELGVEVVVDPESGVVVVDTPDGSLIVIEFDSAG [r5_937_TrMRF]” are 3.08 ± 0.093 kcal/mol, 2.93 ± 0.077 kcal/mol and 3.01 ± 0.043 kcal/mol.
On the same counts, the results for “SAGMPKPIRLLVRNPETGKYFLVEVEEPEELVTVTLLDPETGEVRAVFEGPLEEIIAALEAEGFEVEPVSAG [r5_291_TrMRF]” are 4.47 ± 0.16 kcal/mol, 4.438 ± 0.042 kcal/mol and 4.442 ± 0.036 kcal/mol.
For “SAGMPKPLVLPVVLPDDGATVEVVFDPVEKRIEIRVFKPGHRERAREFAEGIAALFEELGYEVEITDDSAGG [r19_354_TrMRF]” the same measures were 2.3 ± 0.084 kcal/mol, 1.27 ± 0.091 kcal/mol and 1.91 ± 0.12 kcal/mol.
Consider “SAGMPLASVEVEIEKLPDGTYRVRARITIWDPVTGKPLREVEFEGPFESPEAAEAEALKKALEVLEADSAGG [r19_255_TrMRF]”, for which the “folding stability dG unfold” value was determined as 4.25 ± 0.18 kcal/mol in data set [1], 4 ± 0.11 kcal/mol in data set [2] and 4.06 ± 0.13 kcal/mol in data set [3].
For the sequence “SAGMPPVKVEIEVYPVRVEGELLYIAKIVRPDGSVLVIAFKPEELIEAIKKEFPDIEEIKFSPFETPPESAG [r5_25_TrMRF]”, the “folding stability dG unfold” value in data set [1] stood at 3.3 ± 0.095 kcal/mol; in data set [2] it was 3.579 ± 0.022 kcal/mol; in data set [3], 3.48 ± 0.054 kcal/mol.
On the same counts, the results for “SAGMPYIKVKITVIHPDNKEKEAEFVFDLKDGKIDLKPEVIEKALEELGIPKDYEIKIEIVEIKEPDESAGG [r19_287_TrMRF]” are 2.5 ± 0.13 kcal/mol, 2.82 ± 0.16 kcal/mol and 2.81 ± 0.16 kcal/mol.
On the same counts, the results for “SAGMQLLPSATVTLTNPKTGETTTVSVQALRDELAARRGTTDPAAITEADIEAWAKEQGYDPITFTLPSAGG [r19_67_JUSTAS]” are 2.96 ± 0.069 kcal/mol, 2.55 ± 0.027 kcal/mol and 2.78 ± 0.076 kcal/mol.
For “SAGMSLEEIAKEFAKKKGLKKVEIKYYPEKKTYEIKVYLEEPGEPKTATIKVEDVTPETFKKAIEEILESAG [r5_896_TrMRF]” the same measures were 3.61 ± 0.32 kcal/mol, 4.75 ± 0.16 kcal/mol and 4.83 ± 0.41 kcal/mol.
For the sequence “SAGMSLEELAKELAKKLNIEKVEIKYDKETNKVTIKIYFKKNKKKITITIKKENMTPEEIKKLLEEILKSAG [r5_896_TrROS_Hall]”, the results for the “folding stability dG unfold” value in data set [1], in data set [2] and in data set [3] were 2.9 ± 0.12 kcal/mol, 4.51 ± 0.098 kcal/mol and 4.41 ± 0.19 kcal/mol, respectively.
For “SAGMSPELLEALRKAAEEEGLEVVEIKVEKLPNGEVKITIRLKNGKEIKEITLPKDVKTPEEALKLIRESAG [r5_352_TrROS_Hall]” the same measures were 4.82 ± 0.34 kcal/mol, 4.04 ± 0.081 kcal/mol and 4.31 ± 0.1 kcal/mol.
On the same counts, the results for “SAGMSVTLEFTDPDKSAEELKEEIMKKVGIPENYPVKVTETPSPADGYTLTITVDDPKVAEAIKKALSSAGG [r19_215_JUSTAS]” are 1.26 ± 0.037 kcal/mol, 1.742 ± 0.016 kcal/mol and 1.57 ± 0.066 kcal/mol.
For “SAGMTAEELAAEALAKLPPGAKEVTVEIEVNGELVTVTITVEAAPPPPPPEETITTVDEDTGEVREETLSAG [r5_236_TrROS_Hall]” the same measures were 1.44 ± 0.058 kcal/mol, 0.119 ± 0.034 kcal/mol and 0.854 ± 0.068 kcal/mol.
Turning to “SAGMTEEELKKLKEKFPNLKIEPVKTITIKVEPNASVEEIAKKLKELLNIDKVEIEVNEETGEITIRIYSAG [r5_694_TrROS_Hall]”, the “folding stability dG unfold” value in data set [1] amounted to 2.98 ± 0.15 kcal/mol; in data set [2] it was 4.07 ± 0.16 kcal/mol; in data set [3], 3.69 ± 0.23 kcal/mol.
On the same counts, the results for “SAGMTFEAEVKEKTIYIPEINNIIKIKIVNLKPPEGPIIPIIKIEFYVSENTTPEDIIKLLKELNIPVESAG [r5_486_TrMRF]” are 2.09 ± 0.16 kcal/mol, 2.11 ± 0.024 kcal/mol and 2.07 ± 0.099 kcal/mol.
On the same counts, the results for “SAGMTFPPGMTIEELKELLKKLGIKEVTVTYDKETNTVTVTVTVEGKTITITVTLPAPPVVVKEEGEEKSAG [r5_899_TrROS_Hall]” are 1.77 ± 0.059 kcal/mol, 3 ± 0.1 kcal/mol and 2.53 ± 0.17 kcal/mol.
On the same counts, the results for “SAGMTIRIVVPKKDMSVEELAKKLKEELGLPEDAKVTIKVEKLPNGELVLTITVPSEEERKKIEELLKSAGG [r19_215_TrROS_Hall]” are 2.9 ± 0.13 kcal/mol, 2.91 ± 0.15 kcal/mol and 2.98 ± 0.25 kcal/mol.
For “SAGMTIVIEIPSSTSYEDAVKAIKKIAKEIKEKGKKFKIVVLTKDPKIAEAIKKALEELGIPLEVKIGSAGG [r19_268_TrMRF]”, the “folding stability dG unfold” value was determined as 2.77 ± 0.07 kcal/mol in data set [1], 2.91 ± 0.043 kcal/mol in data set [2] and 2.93 ± 0.059 kcal/mol in data set [3].
For “SAGMTLTIEVLIKVETPEEARKAAEELARRLAEEGYTVTVEVVKVEEVTLPDGSKYYRVTVKVTVEPAPSAG [r5_158_TrROS_Hall]” the same measures were 5.08 ± 0.38 kcal/mol, 5.62 ± 0.15 kcal/mol and 5.78 ± 0.31 kcal/mol.
For “SAGMTPDTTLPDLVVTIYSPDGTSTTYTFPNVTRVTEVDPETGKLTLYSPEGRTITLTLSPDEKVEIVGSAG [r5_762_JUSTAS]” the same measures were 2.45 ± 0.035 kcal/mol, 3.024 ± 0.027 kcal/mol and 2.84 ± 0.037 kcal/mol.
For “SAGMTPEEVAEELREKLGLKEVTIERDPAADTLTITVTLPSPGETKTAVVPASALTPEAIRELLLEVLSSAG [r5_896_JUSTAS]” the same measures were 2.77 ± 0.071 kcal/mol, 2.4 ± 0.024 kcal/mol and 2.58 ± 0.048 kcal/mol.
As to “SAGMTSVEKRTLTFETEEEAEKEIKKIADELKKKGYKTEVKIEEVTKEKTEKGDSRYKVTATMKITKKESAG [r5_158_JUSTAS]”, the entries for the “folding stability dG unfold” value in data set [1], in data set [2] and in data set [3] were 0.681 ± 0.074 kcal/mol, 0.792 ± 0.14 kcal/mol and 0.76 ± 0.17 kcal/mol, respectively.
As to “SAGMTTTLTKTEKFPDGTTVTYTTVTAPDGTPLTATATYDPNNPNKATTTTTDPATGTTTTTTTTITGGSAG [r5_345_JUSTAS]”, the figures for the “folding stability dG unfold” value in data set [1], in data set [2] and in data set [3] were 1.03 ± 0.065 kcal/mol, 0.674 ± 0.11 kcal/mol and 0.852 ± 0.12 kcal/mol, respectively.
With “SAGMTTVEVTRTFPADVPVTEEDLELAEKEREEIAAELPESYVVTLASVTYERRPDSWTVTATFTITAPSAG [r5_121_JUSTAS]”, the “folding stability dG unfold” value worked out at 1.47 ± 0.017 kcal/mol in data set [1], 2.11 ± 0.06 kcal/mol in data set [2] and 1.85 ± 0.045 kcal/mol in data set [3].
On the same counts, the results for “SAGMTVEELRNLPPGYRVLEVKFDPETGKYTVVVERPDEDGVPHKVTIEVDGLEELEEFFKTGLTELKLSAG [r5_905_TrMRF]” are 1.73 ± 0.045 kcal/mol, 0.897 ± 0.1 kcal/mol and 1.35 ± 0.16 kcal/mol.
For “SAGMTVKTEVHTTTLPETGLVRTEETVTYPDGSVIRRTGDSNPETGEVTTTVTTPDGTLLATETTTITPSAG [r14_524_JUSTAS]” the same measures were -0.585 ± 0.072 kcal/mol, 0.426 ± 0.033 kcal/mol and 0.184 ± 0.048 kcal/mol.
For “SAGMTVTLPGDKSYTVTVKYTLYDADGKKLGEKTYTKTVTVAPNSTVTINIPNTYPNTVVTEVTVTPESAGG [r19_295_JUSTAS]” the same measures were 3.91 ± 0.35 kcal/mol, 4.38 ± 0.092 kcal/mol and 4.32 ± 0.13 kcal/mol.
Consider “SAGMTVTLTVSEAEFNALFGPDKDAEAIAAHLESQGYVIKSISTTSSTDPETGGRTLTITLDVEPPLVSAGG [r19_376_JUSTAS]”, for which the entries for the “folding stability dG unfold” value in data set [1], in data set [2] and in data set [3] were 3.29 ± 0.09 kcal/mol, 3.603 ± 0.036 kcal/mol and 3.54 ± 0.071 kcal/mol, respectively.
For “SAGMVAEEARRRASPEELAAEEAPPRPPPPVTVVTVPREVAPEVLAALAAAEDVEVEERGDELVIRVVGSAG [r14_7_JUSTAS]” the same measures were -0.583 ± 0.39 kcal/mol, 0.559 ± 0.1 kcal/mol and 0.299 ± 0.19 kcal/mol.
For “SAGMVIAIKPGEPRILVSGLPPELVRRIAEELGAPDVVPVEPGVPAWTALENHPDPAAFLVIPPELALSAGG [r19_270_TrMRF]” the same measures were -0.822 ± 0.7 kcal/mol, 0.393 ± 0.12 kcal/mol and 0.0501 ± 0.15 kcal/mol.
For “SAGMVIAKVTVKLPNGETKTFVIEAESPEELEEQIIKELEKEYGVSPEEFPIVEIKVEFYDPEKGGLLLSAG [r5_482_TrMRF]” the same measures were 2.13 ± 0.089 kcal/mol, 2.23 ± 0.033 kcal/mol and 2.2 ± 0.11 kcal/mol.
Regarding “SAGMVIKIKASEELRELLKKLGLSEEEVKKLKIKLKVNGKEVEVEVEVDKETGMIYVRFKDTGKTFKLPSAG [r5_545_TrROS_Hall]”, the “folding stability dG unfold” value in data set [1] stood at 1.61 ± 0.042 kcal/mol; in data set [2] it was 1.32 ± 0.15 kcal/mol; in data set [3], 1.53 ± 0.13 kcal/mol.
On the same counts, the results for “SAGMVIRLTSPTGSLEITITVEPDGETREAVVKAASGEEVSVIPPSVSVEEIKKRFPDVTASEEPLDLPSAG [r5_314_JUSTAS]” are 0.518 ± 0.037 kcal/mol, 0.653 ± 0.038 kcal/mol and 0.628 ± 0.071 kcal/mol.
On the same counts, the results for “SAGMVITETEELPDRTITTVKYSDGKVVIETLEYDPNSNVVTKTVTTIDLSNPSVSKTTTTVEPDPAPSAGG [r19_102_JUSTAS]” are 1.15 ± 0.099 kcal/mol, 1.81 ± 0.063 kcal/mol and 1.62 ± 0.092 kcal/mol.
As for “SAGMVITLERTIPPTVSVSPEEAVAAIKAELEATPGVTVTAVNSVTVTPLPDGTLRVTVDIVVDRPEPSAGG [r19_396_JUSTAS]”, the figures for the “folding stability dG unfold” value in data set [1], in data set [2] and in data set [3] were 2.23 ± 0.037 kcal/mol, 2.634 ± 0.024 kcal/mol and 2.53 ± 0.06 kcal/mol, respectively.
Take “SAGMVIVIDKKKKKIYIFAPSKEMAEKIAKELNLKDVKVYEKGTSIEELLKKHPDVEKVIVLPAEELKSAGG [r19_270_TrROS_Hall]”: the “folding stability dG unfold” value in data set [1] was 1.45 ± 0.049 kcal/mol; in data set [2], 2.87 ± 0.056 kcal/mol; in data set [3] it was 2.65 ± 0.27 kcal/mol.
